Laboratory results reported in the supplement of paper PMC9170038.

Test system: MS2 coat protein
Test: apparent KD of MS2 coat protein; higher = weaker reporter binding
Settings: Eterna round: R107
Method: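 RNA-MaP round R107: designed RNA switches with theophylline, tryptophan, arginine or FMN aptamers are transcribed on-chip within common flanks. They are titrated with SNAP-549-labelled MS2 coat protein in RNA-MaP buffer (100 mM Tris pH 7.5, 80 mM KCl, 4 mM MgCl2), without ligand or with the indicated ligand. Median apparent KD per design.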

[1] = input ligand: theophylline 20 uM
[2] = input ligand: theophylline 2 mM
[3] = input ligand: tryptophan 2.4 mM

| Sequence | apparent KD of MS2 coat protein (input ligand: arginine 13.2 mM) [µM] | apparent KD of MS2 coat protein (input ligand: none) [µM] | apparent KD of MS2 coat protein [1] [µM] | apparent KD of MS2 coat protein [2] [µM] | apparent KD of MS2 coat protein [3] [µM] |
| --- | --- | --- | --- | --- | --- |
| AAAGGACAUGAGGAUCACCCAUGUCUCGAUACCAGCCGAUCAUCAGGCCCUUGGCAGCGAGACAAGGGUCAUGGAUCGCGGUUCU [Beerusmage] | 0.0117 | 0.0114 | 0.0174 | 0.0123 | 0.0139 |
| AAAGGCGGGCAGGAUACCAGCGCUAACAUGAGGAUCACCCAUGUACAAAUAAUAACAUGGUGCCCUUGGCAGCCUGGGCGUCUGC [Usedlati] | 0.0266 | – | 0.15 | – | 0.0613 |
| AAAUAAACAUCGGCCGCCACUUACUCAUGAGGUAACAACAUGAGGAUCACCCAUGUUUGAGGAUCAAGGACCGGGAUGUAAUAAA [AstrosSSTryB#1] | 0.0231 | 0.0273 | 0.0336 | 0.0329 | 0.0196 |
| AAAUAAAUCACAUGAGGAUCACCCAUGGAUACCAGGCCUGGAAACAGCCCUUGGCAGCCACAUGAGGAUCACCCAUGUGCUAAAU [MAT - Exclusion Theophlline A - Mod of Eli - D2] | 0.0984 | – | 0.207 | – | 0.14 |
| AAAUACAUGAGGAUCACCCAUGUCAAUAAUCGAGGACCGGUACGGCCGCCACUCGAUCGGCCAAGAAAAUGAAAGAUGAUCUCUA [theeternabot_sameState_MS2_Trp_A_8] | 0.0181 | – | 0.0375 | 0.0274 | – |
| AACAAUGCACAUGAGGAUCACCCAUGUGAUACCAGCCGCAACAUAGGCCCUUGGCAGCAUGUGGGUAUAGAACGAUUUGGCUGAA [Xeanle] | 0.0244 | – | 0.0853 | – | 0.0417 |
| AACAGGGCUCGCACGAAGCCCUAAGGUGAUACCAGCACAUGUAAGUGCCCUUGGCAGCACGGUACAUGAGGAUCACCCAUGUAGA [Isleenen] | 0.0197 | – | 0.182 | – | 0.0594 |
| AACAUACAAUUUUAGGUGGAUAUAAGGCGGCGAGGACCGGUACGGCCGCCACUCGCGUACAUGAGGAUCACCCAUGUCUGAAGCU [Same State - Tryptophan A (Freestyle 6)] | 0.0128 | 0.0217 | 0.0217 | 0.0273 | 0.0214 |
| AACAUACAUGAGGAUCACCCAUGUCACGAUACCAGAUACAUGAGGAUCCCUUGGCAGCGUCAUGAGGAUCACCCAUGUUGUACAU [Exclusion Theophylline A 2] | 0.0203 | – | 0.0227 | – | 0.0177 |
| AACAUGAGGAUCACCCAUGUCCUCGUGAUUCGAGGACCGGUACGGCCGCCACUCGGUCCUCGCGAGGUGGAGUCAAAGACUCCAA [Omei Trp A SS A v3] | 0.0723 | 0.384 | 0.487 | 0.425 | 0.327 |
| AACAUGAGGAUCACCCAUGUGUCCCUUGAUACCAGUCCCAUGUGAGACCCUUGGCAGCAAACAUGAGGAUCACCCAUGUCCCAUG [Same State Theophylline A 3] | 0.0609 | – | 0.119 | – | 0.0902 |
| AACGCGGUGAUGGUAGCCGGACGCUAGGUACGAGGACCGGUACGGCCGCCACUCGGAGUCCUACGACAUGAGGAUCACCCAUGUA [Same State Trp A GF15] | 0.0539 | – | 0.14 | 0.145 | – |
| AACGUAUACAGAAGGAGCGUGAAUUAUUUUAUUUUUUUAUAAACAUGAGGAUCACCCAUGUCACAGGUAGGUCGCUGUAUUCGUA [JR_ExcArginiB_Sub018] | 0.0238 | 0.0184 | 0.0405 | 0.0228 | 0.0192 |
| AACUAAUCACAUGAGGAUCACCCAUGUGAUACCAGCUAAUCCCAAAGCCCUUGGCAGCACCUUUGGGUCCCGGUGUGUUUGAACA [Onceesa] | 0.00942 | – | 0.0123 | – | 0.00933 |
| AAGCAGGGUGUAAAAUAAAUAAUCACUGAUACCAGACUAUGAGAUGUCCCUUGGCAGCAGAAACAUGAGGAUCACCCAUGUAAUA [JR_Nu_ExcTheophyA_Sub029] | 0.0211 | – | 0.0284 | – | 0.0273 |
| AAGCUGACAAGAAGGUGUUCCUAAGCUGAUACCAGCCUGGAAACAGGCCCUUGGCAGCAGCACAUGAGGAUCACCCAUGUAAUAA [(T)'-(M)'-(T1)-(T2)-(M1)-(M2)_Design2(Mismatches)] | 0.101 | – | 0.172 | – | 0.115 |
| AAGUGGCACGGAAGGAGCGAGUUUGCCUAUUACAUGAGGAUCACCCAUGUGGGUAAUGGGACUCAGGUAGGUCGCCGUUGUCACU [Same State Arginine B GF 26] | 0.0295 | 0.0568 | 0.0485 | 0.042 | 0.0463 |
| AAUAAACAUGAGGAUCACCCAUGUAGGGUGCGAGGACCGGUACGGCCGCCACUCGGGUGAAAACAUGAAAAUCACCCAUGUAAAA [Mat - Exclusion - Trytophan A - D24] | 0.113 | 0.125 | 0.192 | 0.206 | 0.232 |
| AAUAACAUGAGGAUCACCCAUGUAAAAGAUACCAGAGUGAUGAUCCUCCCUUGGCAGCUUAACGCUGAUUGGAAACAAUCAGCGA [Mat - Same State Theophlline A - Mod of Eli - D1] | 0.0341 | – | 0.268 | – | 0.0676 |

| Sequence | apparent KD of MS2 coat protein (input ligand: arginine 13.2 mM) [µM] | apparent KD of MS2 coat protein (input ligand: none) [µM] | apparent KD of MS2 coat protein [1] [µM] | apparent KD of MS2 coat protein [2] [µM] | apparent KD of MS2 coat protein [3] [µM] |
| --- | --- | --- | --- | --- | --- |
| AAUAACAUGAGGAUCACCCAUGUAAGUAAACGAGGACCGGUACGGCCGCCACUCGAAUAAAUAAAGUACCGGUAAGAUCCAGGGA [Default title] | 0.0146 | – | 0.019 | 0.0154 | – |
| AAUAACAUGAGGAUCACCCAUGUAAGUGGGCGAGGACCGGUACGGCCGCCACUCGGAUGAUGUUGACGAAAAGUCAGCAUCAUCA [#OpenEnded 2 #GuTurnoff #Tail] | 0.0259 | 0.0247 | 0.0313 | 0.0341 | 0.0551 |
| AAUAAUAAGGCGGCCGCCACUAAACAUGAGGAUCACCCAUGUCUCGAGCGCAUGCAUAAGGGAUGUAGGACCGGGCCAAUAAUAA [Exclusion - Tryptophan B (Freestyle 2)] | 0.022 | 0.0297 | 0.0326 | 0.0279 | 0.0236 |
| AAUAAUAGGUGAUCCUAACGAGUGGCAUAACGAGGACCGGUACGGCCGCCACUCGAACAUGAGGAUCACCCAUGUAGUCACUCGA [M'-T'-T-MS2-T'' - Design 5] | 0.0829 | – | 0.28 | 0.751 | – |
| AAUAAUAGGUGAUCUUGAGUCGUACCGUAACGAGGACCGGUACGGCCGCCACUCGAACAUGAGGAUCACCCAUGUAUGUAUGAUA [whbob_SS_trypto A_f6] | 0.0486 | – | 0.128 | 0.276 | – |
| AAUAUUAUGUCGGCCGCCACUUCCCACAAGAGGUGCCUGCACCCACAUGAGGAUCACCCAUGUCGAAGGACCGGGACGCUCAAUU [theeternabot_sameState_MS2_Trp_B_35] | 0.0205 | – | 0.0236 | 0.0216 | – |
| AAUCAUGGAAACAUGACAUGAGGGUUGCUCCGAGGACCGGUACGGCCGCCACUCGCGAGGAGGCGGACAUGAGGAUCACCCAUGU [#05 Tryptophan A Same State] | 0.0403 | 0.252 | 0.28 | 0.328 | 0.0682 |
| AAUGGUGGAACGAAGUACAGGAGUACAAAUCGAGGACCGGUACGGCCGCCACUCGCGAAAGAACAUGAGGAUCACCCAUGUAAAA [theeternabot_exclusion_MS2_Trp_A_34] | 0.0121 | 0.00809 | 0.0218 | 0.177 | 0.0111 |
| AAUUAUUACGGAAGGAGCGUCUUUCGGCUCAAACAUGAGGAUCACCCAUGUGAUUUUGAAUGACAGGUAGGUCGCCGAUAUUUGA [JR_AAArginiB_Sub030] | 0.0244 | 0.0264 | 0.0415 | 0.0321 | 0.0252 |
| AAUUGCGUUGGUGAGGCGGUUAAUGGCGAUACCAGCGUGGAAACACGCCCUUGGCAGCGCCAAAACAUGAGGAUCACCCAUGUUA [Liberec] | 0.0507 | – | 0.149 | – | 0.0825 |
| ACACAUGAGGAUCACCCAUGUCCAAUAGAUACCAGUGAUACAGUGCACCCUUGGCAGCUGUUACUGAGUAAUGGUUCCCUCGGAA [Same State Theophylline A GF2] | 0.0268 | – | 0.0486 | – | 0.0375 |
| ACACCGAAAGGUGCAUUUUCCUUUUCAGAUACCAGACUUUACGUUGUCCCUUGGCAGCUGUAUCACAUGAGGAUCACCCAUGUUG [JR_SSTheophyA_Sub012] | 0.016 | – | 0.0214 | – | 0.0159 |
| ACACGAAGCUGAAGGAGCGUGGUACAAGUUUUUACAUGAGGAUCACCCAUGUUUCGUCAAUCACAGGUAGGUCGCAGAUGCGUGA [#08 Same State - Arginine B] | 0.0321 | 0.0292 | 0.0425 | 0.0366 | 0.0259 |
| ACACGGAAUGAUGGAUCACCUCGUGAAUCACGAGGACCGGUACGGCCGCCACUCGAAAACCGUGACCUGUACGAAAAGUGCAGGA | 0.322 | 0.0897 | 0.232 | 0.25 | 0.0565 |
| ACACGUGACAAGGAUACCAGCCUGGCUAGUUCAAACCCUCACAUGAGGAUCACCCAUGUAGGCCCUUGGCAGCCUAUAGUCUAAG [theeternabot_exclusion_MS2_Theo_B_38] | 0.0277 | – | 0.0437 | – | 0.0299 |
| ACAGGAAACGGAAGGAGCGGAAUUGCAACAUGAGGAUCACCCAUGUUGAUCGUGAGUUGCUUCCAGGUAGGUCGCCGUUACCUAA [Erorve] | 0.0301 | 0.0336 | 0.0394 | 0.0442 | 0.0304 |
| ACAUGAACAUGAGGAUCACCCAUGUAUGAUACCAGAAAAGAAGAGUUCCCUUGGCAGCGUACAACACAUGAGGAUCACCCAUGUG [kvcmullin] | 0.0203 | – | 0.0267 | – | 0.0261 |
| ACAUGAACAUGAGGAUCACCCAUGUGGGAUACCAGCGUGUAUGAGCGCCCUUGGCAGCUCAUGACAUGAGGAUCACCCAUGUUGG [Exclusion Theophylline A 4] | 0.154 | – | 0.242 | – | 0.224 |
